This assay addresses full-length SARS-CoV-2 spike protein, wildtype, surface expressed (SARS-CoV-2, UniProt P0DTC2). Nature of the assay: flow cytometry on cells.

B1: human monoclonal antibody 47D11 (antibody, V domains shown)
VH: QVQLQESGPGLVKPSETLSLTCSVSGGSISSHYWSWIRQPPGKGLEWIGYIYYSGSTNHNPSLKSRVTISVDTSKNQFSLKLSSVTAADTAVYYCARGVLLWFGEPIFEIWGQGTMVTVSS
VL: EIVMTQSPATLSVSPGERATLSCRASQSVSSSLAWYQQKPGQAPRLLIYGASTRAPGIPARFSGSGSGTEFTLTISSLQSEDFAVYYCQQYNNWPLTFGGGTKVEI
Regarding B1, the binding result is on record as “binds”.

The values above are taken from doi:10.1101/2020.09.30.318261 (bioRxiv, 2020).
